The assay addresses T1, human CD98 on human cancer cell lines (EBC-1, H2170, Molt-4) (human).
T1 chain: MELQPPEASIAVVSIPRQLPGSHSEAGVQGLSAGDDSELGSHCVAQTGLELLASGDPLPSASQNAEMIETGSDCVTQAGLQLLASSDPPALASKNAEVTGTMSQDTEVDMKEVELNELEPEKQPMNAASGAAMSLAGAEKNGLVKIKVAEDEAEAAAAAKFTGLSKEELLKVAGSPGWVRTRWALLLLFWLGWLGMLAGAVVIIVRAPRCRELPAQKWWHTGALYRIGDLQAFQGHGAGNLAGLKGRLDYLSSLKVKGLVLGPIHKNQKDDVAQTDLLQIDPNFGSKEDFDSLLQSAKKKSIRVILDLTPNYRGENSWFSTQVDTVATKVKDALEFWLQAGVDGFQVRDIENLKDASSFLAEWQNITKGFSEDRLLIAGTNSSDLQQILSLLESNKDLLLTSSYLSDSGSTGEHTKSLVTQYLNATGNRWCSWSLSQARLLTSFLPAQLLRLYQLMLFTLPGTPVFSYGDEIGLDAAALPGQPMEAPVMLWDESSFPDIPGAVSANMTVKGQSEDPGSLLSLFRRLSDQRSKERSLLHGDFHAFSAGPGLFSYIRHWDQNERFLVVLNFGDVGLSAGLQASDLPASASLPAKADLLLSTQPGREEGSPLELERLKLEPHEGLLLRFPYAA
Nature of the assay: cell-based or functional assay.

The source of these data is patent US20200121803A1 (published 2020).

B1: ChAb3-CZ-DAR2 (anti-CD98 chimeric chAb3 conjugated to Bcl-xL inhibitor synthon CZ, HIC-purified DAR2 species) (antibody, human IgG1, V domains shown)
VH: EVKLVESGGGLVQPGNSLRLSCATSGFTFIDYYMSWVRQSPGKALEWLGFIRNKANGYTTEYSASVKGRFTISRDNSQSILYLQMDTLRAEDSATYYCTRDRPAWFVYWGQGTLVTVSA
VL: DIVMSQSPSSLAVSVGEKVTMSCKSSQSLLYSSNQKNYLAWYQQKPGQSPKLLIYWASTRESGVPDRFTGSGSGTDFTLTFSSVRAEDLAVYYCQQYYSYPYTFGGGTKLEIK
modifications: Bcl-xL inhibitor synthon CZ conjugated to cysteines of the TCEP-reduced antibody (Method H); positions not given; Bcl-xL inhibitor synthon CZ conjugated to cysteines of the TCEP-reduced antibody (Method H); DAR 2.0 by MS; positions not given
Turning to B1, the “ADC potency, IC50 (nM), EBC (NSCLC), growth inhibition (CellTiter-Glo)” value was 271 nM; the “ADC potency, IC50 (nM), H2170 (NSCLC), growth inhibition (CellTiter-Glo)” value is 0.273 nM; the “ADC potency, IC50 (nM), MOLT4 (leukemia), growth inhibition (CellTiter-Glo)” value was 0.046 nM.

B2: ChAb3-CZ-DAR4 (anti-CD98 chimeric chAb3 conjugated to Bcl-xL inhibitor synthon CZ, HIC-purified DAR4 species) (antibody, human IgG1, V domains shown)
VH: B1 VH
VL: B1 VL
modifications: Bcl-xL inhibitor synthon CZ conjugated to cysteines of the TCEP-reduced antibody (Method H); positions not given; Bcl-xL inhibitor synthon CZ conjugated to cysteines of the TCEP-reduced antibody (Method H); DAR 4.0 by MS; positions not given
Turning to B2, the “ADC potency, IC50 (nM), EBC (NSCLC), growth inhibition (CellTiter-Glo)” value amounted to 10.4 nM; the “ADC potency, IC50 (nM), H2170 (NSCLC), growth inhibition (CellTiter-Glo)” value came out at 0.225 nM; the “ADC potency, IC50 (nM), MOLT4 (leukemia), growth inhibition (CellTiter-Glo)” value was 0.021 nM.

B3: ChAb3-CZ-Broad DAR (anti-CD98 chimeric chAb3 conjugated to Bcl-xL inhibitor synthon CZ, unfractionated, DAR 4.1) (antibody, human IgG1, V domains shown)
VH: B1 VH
VL: B1 VL
modifications: Bcl-xL inhibitor synthon CZ conjugated to cysteines of the TCEP-reduced antibody (Method A); positions not given; Bcl-xL inhibitor synthon CZ conjugated to cysteines of the TCEP-reduced antibody (Method A); average DAR 4.1 by MS; positions not given
As to B3, the “ADC potency, IC50 (nM), EBC (NSCLC), growth inhibition (CellTiter-Glo)” value is 7.15 nM; the “ADC potency, IC50 (nM), H2170 (NSCLC), growth inhibition (CellTiter-Glo)” value was 0.15 nM; the “ADC potency, IC50 (nM), MOLT4 (leukemia), growth inhibition (CellTiter-Glo)” value was 0.034 nM.
